Article PMC6120983, “Chimeric Proteins Containing MAP-1 and Functional Domains of C4b-Binding Protein Reveal Strong Complement Inhibitory Capacities” (Frontiers in Immunology, 2018)
Read-outs that look alike come from different tables or passages of the source. Each block holds one molecule with its values, some of them ahead of it.

B1: C4BP^1−5:MAP-1 (other)
chain: NCGPPPTLSFAAPMDITLTETRFKTGTTLKYTCLPGYVRSHSTQTLTCNSDGEWVYNTFCIYKRCRHPGELRNGQVEIKTDLSFGSQIEFSCSEGFFLIGSTTSRCEVQDRGVGWSHPLPQCEIVKCKPPPDIRNGRHSGEENFYAYGFSVTYSCDPRFSLLGHASISCTVENETIGVWRPSPPTCEKITCRKPDVSHGEMVSGFGPIYNYKDTIVFKCQKGFVLRGSSVIHCDADSKWNPSPPACEPNSCINLPDIPHASWETYPRPTKEDVYVVGTVLRYRCHPGYKPTTDEPTTVICQKNLRWTPYQGCEAHTVELNNMFGQIQSPGYPDSYPSDSEVTWNITVPDGFRIKLYFMHFNLESSYLCEYDYVKVETEDQVLATFCGRETTDTEQTPGQEVVLSPGSFMSITFRSDFSNEERFTGFDAHYMAVDVDECKEREDEELSCDHYCHNYIGGYYCSCRFGYILHTDNRTCRVECSDNLFTQRTGVITSPDFPNPYPKSSECLYTIELEEGFMVNLQFEDIFDIEDHPEVPCPYDYIKIKVGPKVLGPFCGEKAPEPISTQSHSVLILFHSDNSGENRGWRLSYRAAGNECPELQPPVHGKIEPSQAKYFFKDQVLVSCDTGYKVLKDNVEMDTFQIECLKDGTWSNKIPTCKKNEIDLESELKSEQVTE
B2: C4BP^1−5:MAP-1 (other)
chain: B1 chain
modifications: (Gly4Ser)3 linker between C4BP CCP1-5 and MAP-1 left out of the pieces; CCP1-5 limits from Sushi 1-5 features; MAP-1 (MAp44, NM_001031849.2) is the 380-aa MASP1 isoform, signal peptide 1-19 removed …
B3: recombinant MAP-1 (natural protein, human, UniProt P48740-3 20-380, looked up)
chain: HTVELNNMFGQIQSPGYPDSYPSDSEVTWNITVPDGFRIKLYFMHFNLESSYLCEYDYVKVETEDQVLATFCGRETTDTEQTPGQEVVLSPGSFMSITFRSDFSNEERFTGFDAHYMAVDVDECKEREDEELSCDHYCHNYIGGYYCSCRFGYILHTDNRTCRVECSDNLFTQRTGVITSPDFPNPYPKSSECLYTIELEEGFMVNLQFEDIFDIEDHPEVPCPYDYIKIKVGPKVLGPFCGEKAPEPISTQSHSVLILFHSDNSGENRGWRLSYRAAGNECPELQPPVHGKIEPSQAKYFFKDQVLVSCDTGYKVLKDNVEMDTFQIECLKDGTWSNKIPTCKKNEIDLESELKSEQVTE

Tests used:
[1] = molecular target: T1, recombinant CL-11 (UniProt Q9BWP8 26-271); experiment: ELISA; rMBL or rCL-11 (2 μg/ml) held on mannan-coated wells; serial dilutions of the proteins from 13.5 nM in TBS/Tween/Ca^2+ (5 mM CaCl2), 2 h; detected with biotinylated anti-MASP-1/-3/MAP-1 mAb 8B3; Kd = concentration at half of the maximum binding, fit specific binding with Hill slope, Bmax shared
T1 construct: collectin-11 (CL-11, CL-K1); Held on mannan-coated wells in the ELISA; also called rCL-11; collectin-11; source: produced in house

[2] = molecular target: T2, recombinant MBL (UniProt P11226 21-248); experiment: as above
[3] = molecular target: MAP-1:C4BP^1−5 (human) (UniProt P48740); experiment: SEC; 50 μg on Superdex 200 HR 10/30, 0.5 ml/min, TBS/Ca^2+ (5 mM CaCl2); fractions checked by sandwich ELISA (anti-C4BP capture, anti-MAP-1 detection)
[4] = molecular target: T2, recombinant MBL
[5] = molecular target: T2, recombinant MBL; experiment: cell-based or functional assay
[6] = molecular target: B1; experiment: SEC; 50 μg on Superdex 200 HR 10/30, 0.5 ml/min, TBS/Ca^2+ (5 mM CaCl2); fractions checked by sandwich ELISA (anti-C4BP capture, anti-MAP-1 detection); details: both partners purified

T2 sequence (P11226 21-248): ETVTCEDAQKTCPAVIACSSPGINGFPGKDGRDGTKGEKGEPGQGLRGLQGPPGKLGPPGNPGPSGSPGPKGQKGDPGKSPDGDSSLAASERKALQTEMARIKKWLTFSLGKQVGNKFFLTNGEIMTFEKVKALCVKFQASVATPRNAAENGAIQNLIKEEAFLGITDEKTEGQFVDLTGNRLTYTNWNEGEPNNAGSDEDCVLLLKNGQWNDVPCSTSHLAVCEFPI
T1 sequence (Q9BWP8 26-271): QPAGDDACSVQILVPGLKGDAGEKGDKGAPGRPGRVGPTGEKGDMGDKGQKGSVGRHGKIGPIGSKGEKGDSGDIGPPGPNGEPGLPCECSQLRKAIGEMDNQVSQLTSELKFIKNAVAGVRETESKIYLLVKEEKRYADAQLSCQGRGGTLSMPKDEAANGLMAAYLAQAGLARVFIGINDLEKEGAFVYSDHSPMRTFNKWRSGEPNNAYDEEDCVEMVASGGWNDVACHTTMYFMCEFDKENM

Kd [1]: 1.97 nM | Kd [2]: 0.35 nM | stoichiometry N [3]: 2 | IC50 of C3 deposition (ELISA; inhibitor pre-incubated on mannan-bound rMBL, then 2% MBL defect serum) [4]: 0.36 nM | IC50 of C4 deposition (ELISA; inhibitor pre-incubated on mannan-bound rMBL, then 2% MBL defect serum) [4]: 0.45 nM | IC50 of TCC deposition (ELISA; inhibitor pre-incubated on mannan-bound rMBL, then 2% MBL defect serum) [4]: 0.17 nM
Molecule: MAP-1:C4BP^1−5 (from UniProt P48740-3 20-380)

Molecule: B1
IC50 of C3 deposition (ELISA; inhibitor pre-incubated on mannan-bound rMBL, then 2% MBL defect serum) [5]: 7.72 nM | IC50 of C4 deposition (ELISA; inhibitor pre-incubated on mannan-bound rMBL, then 2% MBL defect serum) [5]: 1.2 nM | IC50 of TCC deposition (ELISA; inhibitor pre-incubated on mannan-bound rMBL, then 2% MBL defect serum) [5]: 0.92 nM | Kd ([2]; both partners purified): 0.56 nM

Molecule: B2
Kd ([1]; both partners purified): 5.49 nM | stoichiometry N [6]: 2

Molecule: B3
IC50 of C3 deposition (ELISA; inhibitor pre-incubated on mannan-bound rMBL, then 2% MBL defect serum) [5]: 3.35 nM | IC50 of C4 deposition (ELISA; inhibitor pre-incubated on mannan-bound rMBL, then 2% MBL defect serum) [5]: 0.14 nM | IC50 of TCC deposition (ELISA; inhibitor pre-incubated on mannan-bound rMBL, then 2% MBL defect serum) [5]: 0.46 nM
